Measured values as given in patent US20260167710A1 (GlaxoSmithKline, published 2026).

Key:
human IL-33 [1] = biological target: T1, human IL-33 (human, Biotinylated in Example 2; the site is not stated.); experiment: cell-based or functional assay
T1 chain: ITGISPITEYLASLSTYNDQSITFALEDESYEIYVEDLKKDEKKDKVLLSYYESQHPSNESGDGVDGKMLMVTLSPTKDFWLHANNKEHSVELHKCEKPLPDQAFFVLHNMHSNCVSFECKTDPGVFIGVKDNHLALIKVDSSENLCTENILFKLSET

human IL-33 [2] = biological target: T1, human IL-33; experiment: cell-based or functional assay
cynomolgus IL-33 = biological target: T2, cynomolgus IL-33 (cynomolgus monkey, UniProt A0A2K5W3I1 112-269); experiment: MSD-SET solution equilibrium titration, 25 C, n = 3
T2 construct: also called cyno IL-33; cynomolgus monkey IL-33
T2 sequence: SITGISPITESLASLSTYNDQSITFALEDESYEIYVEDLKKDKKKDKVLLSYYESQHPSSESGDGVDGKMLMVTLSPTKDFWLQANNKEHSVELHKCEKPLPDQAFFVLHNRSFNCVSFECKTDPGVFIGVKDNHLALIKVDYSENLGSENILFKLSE

human IL-33 [3] = biological target: T1, human IL-33; experiment: cell-based or functional assay
human IL-1a = biological target: T3, human IL-1a (human, UniProt P01583 113-271); experiment: BLI (Octet RED384), antibody on protein A sensors, single shot
T3 construct: also called IL-1a (R&D Systems #200-LA)
T3 sequence (looked up): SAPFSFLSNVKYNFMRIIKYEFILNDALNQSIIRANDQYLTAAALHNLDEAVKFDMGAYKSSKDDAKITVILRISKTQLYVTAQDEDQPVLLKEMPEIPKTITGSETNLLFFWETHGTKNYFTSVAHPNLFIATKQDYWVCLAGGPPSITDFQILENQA

human IL-1b = biological target: T4, human IL-1b (human, UniProt P01584 117-269); experiment: as above
T4 construct: also called IL-1b (R&D Systems #201-LB)

human IL-33 [4] = biological target: T1, human IL-33; experiment: cell-based or functional assay

IC50, inhibition of 1 ng/mL human IL-33 induced IL-6 production, mouse bone marrow-derived mast cells (human IL-33 [1]): 0.0312 nM
IC50, inhibition of 1 ng/mL human IL-33 induced IL-13 production, mouse bone marrow-derived mast cells (human IL-33 [1]): 0.028 nM
IC50, inhibition of 1 ng/mL human IL-33 induced IL-18 production, mouse bone marrow-derived mast cells (human IL-33 [1]): 0.0613 nM
IC50, inhibition of 1 ng/mL human IL-33 induced TNF-α production, mouse bone marrow-derived mast cells (human IL-33 [1]): 0.0374 nM
pIC50, inhibition of 1 ng/mL human IL-33 induced IL-6 production, mouse bone marrow-derived mast cells (human IL-33 [1]): 10.5
pIC50, inhibition of 1 ng/mL human IL-33 induced IL-13 production, mouse bone marrow-derived mast cells (human IL-33 [1]): 0.55
pIC50, inhibition of 1 ng/mL human IL-33 induced IL-18 production, mouse bone marrow-derived mast cells (human IL-33 [1]): 10.2
pIC50, inhibition of 1 ng/mL human IL-33 induced TNF-α production, mouse bone marrow-derived mast cells (human IL-33 [1]): 10.4
IC50, inhibition of IL-33 (15 pM) induced superoxide generation from eosinophils, pre-complexed, Mean (human IL-33 [2]): 19.6 pM
IC50, inhibition of IL-33 (15 pM) induced superoxide generation from eosinophils, pre-complexed, N = 1 (human IL-33 [2]): 21.9 pM
IC50, inhibition of IL-33 (15 pM) induced superoxide generation from eosinophils, pre-complexed, N = 2 (human IL-33 [2]): 23.5 pM
IC50, inhibition of IL-33 (15 pM) induced superoxide generation from eosinophils, pre-complexed, N = 3 (human IL-33 [2]): 16.5 pM
IC50, inhibition of IL-33 (15 pM) induced superoxide generation from eosinophils, pre-complexed, N = 4 (human IL-33 [2]): 25.6 pM
IC50, inhibition of IL-33 (15 pM) induced superoxide generation from eosinophils, pre-complexed, N = 5 (human IL-33 [2]): 14.8 pM
IC50, inhibition of IL-33 (15 pM) induced superoxide generation from eosinophils, pre-complexed, N = 6 (human IL-33 [2]): 10.5 pM
IC50, inhibition of IL-33 (15 pM) induced superoxide generation from eosinophils, pre-complexed, N = 7 (human IL-33 [2]): 24.8 pM
pIC50, inhibition of IL-33 (15 pM) induced superoxide generation from eosinophils, pre-complexed, Mean (human IL-33 [2]): 10.7
pIC50, inhibition of IL-33 (15 pM) induced superoxide generation from eosinophils, pre-complexed, N = 1 (human IL-33 [2]): 10.7
pIC50, inhibition of IL-33 (15 pM) induced superoxide generation from eosinophils, pre-complexed, N = 2 (human IL-33 [2]): 10.6
pIC50, inhibition of IL-33 (15 pM) induced superoxide generation from eosinophils, pre-complexed, N = 3 (human IL-33 [2]): 10.8
pIC50, inhibition of IL-33 (15 pM) induced superoxide generation from eosinophils, pre-complexed, N = 4 (human IL-33 [2]): 10.6
pIC50, inhibition of IL-33 (15 pM) induced superoxide generation from eosinophils, pre-complexed, N = 5 (human IL-33 [2]): 10.8
pIC50, inhibition of IL-33 (15 pM) induced superoxide generation from eosinophils, pre-complexed, N = 6 (human IL-33 [2]): 11
pIC50, inhibition of IL-33 (15 pM) induced superoxide generation from eosinophils, pre-complexed, N = 7 (human IL-33 [2]): 10.6
Kd (cynomolgus IL-33): 0.0275 nM
IC50, inhibition of 10 ng/mL human IL-33 induced IL-6 production, mouse bone marrow-derived mast cells (human IL-33 [3]): ~0.566 nM
IC50, inhibition of 10 ng/mL human IL-33 induced IL-13 production, mouse bone marrow-derived mast cells (human IL-33 [3]): ~0.567 nM
IC50, inhibition of 10 ng/mL human IL-33 induced IL-18 production, mouse bone marrow-derived mast cells (human IL-33 [3]): ~0.631 nM
IC50, inhibition of 10 ng/mL human IL-33 induced TNF-α production, mouse bone marrow-derived mast cells (human IL-33 [3]): ~0.581 nM
pIC50, inhibition of 10 ng/mL human IL-33 induced IL-6 production, mouse bone marrow-derived mast cells (human IL-33 [3]): ~9.25
pIC50, inhibition of 10 ng/mL human IL-33 induced IL-13 production, mouse bone marrow-derived mast cells (human IL-33 [3]): ~9.25
pIC50, inhibition of 10 ng/mL human IL-33 induced IL-18 production, mouse bone marrow-derived mast cells (human IL-33 [3]): ~9.2
pIC50, inhibition of 10 ng/mL human IL-33 induced TNF-α production, mouse bone marrow-derived mast cells (human IL-33 [3]): ~9.24
binding result (human IL-1a): no binding (tested: 100 nM)
binding result (human IL-1b): no binding (tested: 100 nM)
IC50, inhibition of 30 ng/mL IL-33 induced IFN-γ secretion from whole blood, non-pre-complexed, Mean (human IL-33 [4]): 1.57 nM
IC50, inhibition of 30 ng/mL IL-33 induced IFN-γ secretion from whole blood, non-pre-complexed, donor #32871 (human IL-33 [4]): 0.97 nM
IC50, inhibition of 30 ng/mL IL-33 induced IFN-γ secretion from whole blood, non-pre-complexed, donor #90237 (human IL-33 [4]): 2.6 nM
IC50, inhibition of 30 ng/mL IL-33 induced IFN-γ secretion from whole blood, non-pre-complexed, donor #91680 (human IL-33 [4]): 1.6 nM
IC50, inhibition of 30 ng/mL IL-33 induced IFN-γ secretion from whole blood, non-pre-complexed, donor #91955 (human IL-33 [4]): 0.48 nM
B1: 22A06-458 (antibody, human IgG1, kappa)
heavy: QVQLVQSGAEVKKPGASVKVSCKASGYTFISYGMHWVRQAPGQGLEWMGEINPHGGSTSYAQKFKGRVTMTRDTSTSTVYMELSSLRSEDTAVYYCARPSAAYSHYLGIDLWGRGTLVTVSSASTKGPSVFPLAPSSKSTSGGTAALGCLVKDYFPEPVTVSWNSGALTSGVHTFPAVLQSSGLYSLSSVVTVPSSSLGTQTYICNVNHKPSNTKVDKKVEPKSCDKTHTCPPCPAPELLGGPSVFLFPPKPKDTLYITREPEVTCVVVDVSHEDPEVKFNWYVDGVEVHNAKTKPREEQYNSTYRVVSVLTVLHQDWLNGKEYKCKVSNKALPAPIEKTISKAKGQPREPQVYTLPPSRDELTKNQVSLTCLVKGFYPSDIAVEWESNGQPENNYKTTPPVLDSDGSFFLYSKLTVDKSRWQQGNVFSCSVMHEALHNHYTQKSLSLSPGK
light: DIQMTQSPSSVSASVGDRVTITCRASQGISSWLAWYQQKPGKAPKLLIYAASRLQSGVPSRFSGSGSGTDFTLTISSLQPEDFATYYCQQANVFPLTFGGGTKVEIKRTVAAPSVFIFPPSDEQLKSGTASVVCLLNNFYPREAKVQWKVDNALQSGNSQESVTEQDSKDSTYSLSSTLTLSKADYEKHKVYACEVTHQGLSSPVTKSFNRGEC
